Assay results taken from the supplement of paper PMC12042874.
± gives the uncertainty stated by the source.

Assay: amyloid nucleation score (Sup35N fusion, yeast selection) (log enrichment); library NNK1; higher = more nucleation; inactive = no reads after selection
Procedure, shortened: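 Growth for 7 days at 30°C on medium lacking adenine and uracil followed a 24-hour induction with 100 μM copper sulfate of psi-negative yeast expressing peptides of 20 random codons fused to Sup35N. Input and output plasmid inserts were sequenced with Illumina, and sequences with under 100 input reads were excluded. Nucleation score is the DiMSum log enrichment of output over input reads, centred on the mode score of non-aggregating sequences.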

Substance	amyloid nucleation score
DVLLCSIRTSSHDMIIMRKR	0.553 ± 0.65
DVSLNVNLYVHRFMCHQVPI	0.515 ± 0.28
DVSNTVFFTLLYLLGPRCRS	0.721 ± 0.38
DVSVT	inactive
DVVEYVIWSYTWMNLAHYCR	0.136 ± 0.24
DWGKSSPLLKVLLMQSRLPC	-0.073 ± 0.45
DWRMWGF	-0.865 ± 0.69
DYGIWELSINMSVKYLCWLP	1.27 ± 0.13
DYGKSCRIALYGYYDRWCTG	0.797 ± 0.48
DYKHNPKWKMCKCLLAIRNY	1.53 ± 0.51
DYNWSCFH	1.28 ± 0.69
DYYVVLDMQQVFEGGCRFFR	0.498 ± 0.46
EACNNQNFCRTSNGESSTTV	0.324 ± 0.75
EAGKLL	0.309 ± 0.32
EAGNTDSAINGVRAKDGS	1.15 ± 0.69
EAVRWRGRNVRNLFWDN	0.03 ± 0.35
ECGVFQVKTAGIGS	-0.425 ± 0.8
ECMGGVAIARNFATI	-1.11 ± 2.7
ECMVYDYNYWVHVYGITYCC	0.242 ± 0.35
ECSGVNLNTSYLPGVQEATM	0.715 ± 0.2
EDAWGIIEEIIGWRGCGRLA	-0.84 ± 0.74
EDDLN	0.271 ± 0.38
EDFLYMCFRLSFVIIH	3.42 ± 0.12
EDWHVDSFGFSKTSMGTRRL	2.49 ± 0.14
EEWFETGCENGCNVEGNRSC	-0.117 ± 0.57
EFAYQV	-0.552 ± 1.5

Substance	amyloid nucleation score
EFEWNLFPICNTNMI	1.66 ± 0.8
EGGSF	0.059 ± 0.45
EGMNLV	0.196 ± 0.63
EGQCSNIVSKLAPSKIPYLR	-0.853 ± 0.66
EGRPECKARLSRYGRCRMNG	0.447 ± 0.48
EGRTWRGSRRGLHLDSPRMC	0.438 ± 0.95
EGVQKDC	inactive
EGVVMRISWKNTNGHVYEKG	2.06 ± 0.23
EIARHSFF	inactive
EIMFDWVMMEKKCRILHKKT	inactive
EINESRLYYNSLQAFAFMWA	-0.823 ± 0.57
EIQSSRRKITISMPNRSIVV	0.333 ± 0.25
EIRWSHIFERWV	0.628 ± 0.38
EKFGRRCCSFGRSVSEWVTK	0.999 ± 0.66
EKGLEFHLWLRPVLRACVGY	1.01 ± 1.1
ELIFFDDHFTDWYLCFNNFG	-1.29 ± 1.4
ELIIRTRLAVEELLMKACFV	-0.498 ± 0.39
ELSYSYQSGID	0.225 ± 0.67
ELYPGF	-0.219 ± 1.2
EMCFGLFGKLVWCETWLVKA	0.344 ± 0.32
EMFCC	0.554 ± 0.59
EMSRGHLHTSFRVYIQMLGG	4.54 ± 0.073
ENDVNDLRSPLDNQYLSRLP	inactive
ENMGELCA	inactive
ENRYMELTFQCSARRVG	2.81 ± 0.11
ENVGRTLAYIWMVWLSSQML	1.87 ± 0.67

Substance	amyloid nucleation score
EPARK	inactive
EPLLHSG	inactive
EPYDSLGYPNEDLGTGVFWG	-1.72 ± 2.7
EQCHRVFRAL	0.362 ± 0.55
EQHCNAMGVSRSGPWCDGEV	0.051 ± 0.85
EQNCVGVCSELNVFYGACVI	2.12 ± 0.48
EQRKRDHSRASSVSLKRYMG	0.657 ± 0.53
ERENAYPSIMLVCV	-0.092 ± 0.32
ERFVYALIEFCIETERLHTE	-0.459 ± 0.45
ERITIFVSVRTGKLRYLWPT	-0.837 ± 2.4
ERLYLSRYSMVIFVGLMCKS	-0.145 ± 0.61
ERPAAYATVTTSCKKTWDL	7.769 ± 0.06
ERSSAPECNFKYISYTGKS	-0.881 ± 0.48
ERYVLAPYQQTRRGNLQFRY	0.615 ± 0.63
ESAERGVRGSGRGRMNGGMM	-0.778 ± 0.98
ESIVRFKSSRSDKI	2.86 ± 0.075
ESSIVVGCRGSGWTQDAASQ	-0.465 ± 0.29
ESSLLLLDLGELRCYTFCLV	-0.944 ± 0.94
ESWAITWVGLYGCTLTVIRN	-0.148 ± 0.47
ETRTHWVRLAANNNFH	0.135 ± 0.88
EVDRWGICCPYW	1.88 ± 0.26
EVHGFNRCGLKSIRVHKVYA	0.839 ± 0.62
EVIRLDSIFLETGVRSCFQY	0.041 ± 0.73
EVITNTNGIVWSFDELYSVM	inactive
EVSLVVYTYVF	0.697 ± 0.69
EVTDVRLS	0.862 ± 0.62

Substance	amyloid nucleation score
EVVEWSLTKNCLFHALFIWV	-0.142 ± 0.3
EVYRVTAYVLFYGICQLTLE	-0.53 ± 0.32
EWKNGSHMWLQRLGESWNRL	-0.413 ± 0.35
EWVGQFEYEGTTLWVYLVTL	-0.419 ± 0.27
EWVVWVDCRGRYADNVSGGA	-0.558 ± 0.53
EYSIIYCICH	3.08 ± 0.14
FACMEGSLVM	inactive
FACYLNHAGGVSAHKYIFVT	0.351 ± 0.37
FADAASNPNAII	0.071 ± 0.4
FADLK	-0.88 ± 1.7
FAEENTSKFFSRKGEVCYMF	-0.113 ± 0.9
FALIR	0.81 ± 0.51
FATFRMSCPAKTVSVAVIGG	-0.069 ± 0.77
FAYRL	0.404 ± 0.44
FCCCNRLYQGRELWVKLVNR	4.94 ± 0.06
FCEHNVISYNESLRM	0.352 ± 0.53
FCGAVVFNVVWCYWNKIAVL	1.79 ± 0.12
FCGDVKLMYWSRFVLMKGHQ	-1.18 ± 1.1
FCICNRKRHNPSPEKKNA	-1.36 ± 0.91
FCLNLQYRSKMMHRANICL	0.159 ± 0.17
FCNLYVEWFLGDNVKVTRYR	3.58 ± 0.095
FCPDICTWKNWSMWMQLEDL	0.89 ± 0.54
FCSDFKSEYSIWDYWVWHKV	-0.306 ± 0.37
FCTCSLKQVM	inactive
FCVTNPWS	0.308 ± 0.58
FCVYKAVCIHYPSGFPLTIG	-0.238 ± 0.31

Substance	amyloid nucleation score
FCWKLGANIDVDECWRWAAD	1.29 ± 0.63
FCYFRVFVKSILDDWN	0.278 ± 0.31
FCYSTI	0.487 ± 0.81
FDLFVKGECFVVRPLATSTY	-0.66 ± 0.38
FDNVVENHSS	-0.074 ± 0.43
FDRSWRGFAGPRQRTGLVVF	-0.178 ± 0.51
FDSFKVRYN	-0.724 ± 0.7
FDSGLETTNIKMRYMVVYLR	-0.608 ± 0.38
FESMVTIILIDPFDVLIGDG	inactive
FFAIVGRKVCRGSIHFWSIT	1.23 ± 0.61
FFGNLVRWSNGYGDHCYSLN	2.51 ± 0.22
FFICKFL	-0.427 ± 1.9
FFIKE	-0.067 ± 0.48
FFLPILGPW	-0.729 ± 1.7
FFNAV	-0.353 ± 0.59
FFNVVYLTRANASYTGYSNI	5.41 ± 0.063
FFRIEATSVSLSPAYRLEDR	2.59 ± 0.28
FFVGEDRACSRYSLTTTITG	0.554 ± 0.64
FFVSIELITTRLLISQHNSY	-0.689 ± 0.89
FFVVELFVSHKLRLYRVRFG	0.412 ± 0.62
FFYRPYVFMCLFYMVSRAGS	4.41 ± 0.078
FGFHRVGSGIMRVVAQH	0.242 ± 0.44
FGGWNYYYLAVQYIFLDTGV	2.45 ± 0.15
FGHKPCLATQLTGPTKRCAA	0.959 ± 1.1
